Test results reported in paper PMC7102964.

Key:
Experiment in all cases: BLI
Details in all cases: none stated (T7 transcript); 3' end periodate-oxidised for biotin hydrazide; BLI (Octet RED96), biotin-tRNA on streptavidin tips: 50 mM Tris-HCl pH 8.0, 150 mM NaCl, 0.002% Tween-20, 25 C; 1:1 model
[1] = tested on: OSGEPL1-K203R (Homo sapiens)
[2] = tested on: OSGEPL1 (mature, delta-MTS) (Homo sapiens)
[3] = tested on: OSGEPL1-K299Q (Homo sapiens)
[4] = tested on: OSGEPL1-K203A (Homo sapiens)
[5] = tested on: OSGEPL1-K203E (Homo sapiens)
[6] = tested on: OSGEPL1-K203Q (Homo sapiens)

Substance: hmtRNAThr
- Kd [1]: 3.6 µM
- Kd [2]: 6.7 µM
- Kd [3]: 6.8 µM
- Kd [4]: 29 µM
- Kd [5]: 8.5 µM
- Kd [6]: 14 µM

Substance: hmtRNAThr-U34C
- Kd [2]: 5.5 µM

Substance: hmtRNAThr-U34G
- Kd [2]: 4.1 µM
